US20150266969A1
Residue numbers refer to the chain shown, from its start.

B1: PEP2-2-2 Fc (Fc fusion, not shown: a dimerising Fc or GST)
chain: EVQLLESGGGLVQPGGSLRLSCAASGFTFRNHDMGWVRQAPGKGLEWVSAISGSGGSTYYADSVKGRFTISRDNSKNTLYLQMNSLRAEDTAVYYCAEPKPMDTEFDYRSQGTLVTVSS
B2: PEP2-47-1 Fc (Fc fusion, not shown: a dimerising Fc or GST)
chain: B1 chain with F27Y, R30P, N31M, H32K, S57G, K100S, P101H, M102F, T104R, E105P
B3: PEP2-247-1 Fc (Fc fusion, not shown: a dimerising Fc or GST)
chain: B1 chain with S57G, K100S, P101H, M102F, T104R, E105P
B4: PEP2-247-2 Fc (Fc fusion, not shown: a dimerising Fc or GST)
chain: B1 chain with D62N, K100S, P101H, M102F, T104R, E105P
B5: PEP2-472-1 Fc (Fc fusion, not shown: a dimerising Fc or GST)
chain: B1 chain with F27Y, R30P, N31M, H32K, S57G
B6: PEP2-47 Fc (Fc fusion, not shown: a dimerising Fc or GST)
chain: B1 chain with R30P, N31M, H32K, K100S, P101H, M102F, T104R, E105P, R109W, S110G
B7: PEP2-2-1-1 Fc (Fc fusion, not shown: a dimerising Fc or GST)
chain: B1 chain with Q111P
B8: PEP2-42 Fc (Fc fusion, not shown: a dimerising Fc or GST)
chain: EVQLLESGGGLVQPGGSLRLSCAASGFTFDNVEMSWVRQAPGKGLEWVSSIGSKGEDTYYADSVKGRFTISRDNSKNTLYLQMNSLRAEDTAVYYCAQTVNVPEPAFAYWGQGTLVTVSS
B9: PEP2-42-1 Fc (Fc fusion, not shown: a dimerising Fc or GST)
chain: B8 chain with L4M, S53T, D57Y, L86M, S119L

What follows are binders tested against PEP2-4 dAb (assay: immunohistochemistry on cervical cancer sections, 20 nM PEP2-4 with added free peptide; estimate between no inhibition at 10 uM and clear inhibition at 100 uM).
Sequence of PEP2-4 dAb (chain, as listed by the source): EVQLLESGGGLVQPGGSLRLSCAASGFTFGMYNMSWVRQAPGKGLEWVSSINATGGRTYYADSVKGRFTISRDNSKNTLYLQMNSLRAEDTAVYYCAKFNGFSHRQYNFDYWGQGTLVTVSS

| Binder | IC50 [nM] |
| --- | --- |
| GHNYTTRNILPGLNITC (modifications not checked) [E200 peptide] | 40000 to 50000 |

Each binder was assayed against E200 peptide (assay: Biacore, PEP2-Fc on E200).

| Binder | Kd [nM] |
| --- | --- |
| B1 | 0.1 |
| B2 | 0.11 |
| B3 | 0.19 |
| B4 | 0.45 |
| B5 | 0.09 |
| B6 | 7.5 |
| B7 | 0.09 |
| B8 | 5.5 |
| B9 | 0.12 |
